Key:
[1] = biological target: T1, human DLL4, full length, overexpressed on cells (human, UniProt Q9NR61 27-685); experiment: FMAT, hNotch1-Fc on CHO-hDLL4, +25 uM HSA
T1 construct: CHO cells in FMAT, HEK293 cells in the reporter assay; also called hDLL4; CHO-hDLL4

[2] = biological target: T2, mouse DLL4, full length, overexpressed on CHO cells (mouse, UniProt Q9JI71 27-686); experiment: FMAT, hNotch1-Fc on CHO-mDLL4, +25 uM HSA
T2 construct: whole, on cells; also called mDLL4; CHO-mDLL4

[3] = biological target: T3, recombinant human VEGF165 (human, UniProt P15692-4 27-191, biotinylated in the competition assays); experiment: AlphaScreen, hVEGF165/hVEGFR2-Fc competition, +5 uM HSA
T3 construct: Bought protein; also called hVEGF165; rhVEGF165
Experimental: These 2 competition assays are also performed after preincubation of the VHHs with 5 μM human serum albumin.

[4] = biological target: T3, recombinant human VEGF165; experiment: AlphaScreen, hVEGF165/hVEGFR1-Fc competition, -HSA
[5] = biological target: T1, human DLL4, full length, overexpressed …; experiment: cell-based or functional assay
[6] = biological target: T2, mouse DLL4, full length, overexpressed …; experiment: FMAT, hNotch1-Fc on CHO-mDLL4, -HSA
[7] = biological target: T1, human DLL4, full length, overexpressed …; experiment: FMAT, hNotch1-Fc on CHO-hDLL4, -HSA
[8] = biological target: T3, recombinant human VEGF165; experiment: AlphaScreen, hVEGF165/hVEGFR2-Fc competition, -HSA
[9] = biological target: VEGF (used to stimulate HUVEC cells) (UniProt P15692-4 27-191, limits assumed); experiment: cell-based or functional assay
[10] = biological target: T4, recombinant human DLL4 (C-terminally His-tagged extracellular domain, R&D Systems) (human, UniProt Q9NR61 25-522, biotinylated in the competition ELISA); experiment: SPR (Biacore), recombinant human DLL4
T4 construct: also called rhDLL4; hDLL4
Experimental: Kinetic analysis to determine the affinity of the DII4-VHH interaction is performed by Surface Plasmon Resonance (SPR) on a Biacore T100 instrument. […] Purified VHHs or Fab fragment are injected for 2 minutes at different concentrations (between 10 and 300 nM) and allowed to dissociate for 20 min at a flow rate of 45 μl/min. Between sample injections, the surfaces are regenerated with 10 mM glycine pH1.5 and 100 mM HCl. HBS-N (Hepes buffer pH7.4) is used as running buffer. If possible, data are evaluated by fitting a 1:1 interaction model (Langmuir binding) onto the binding curves. The affinity constant KD is calculated from resulting association and dissociation rate constants (kₐ) and […].

[11] = biological target: T5, human DLL4 expressed on cells (CHO-hDLL4; HEK293-hDLL4) (human, UniProt Q9NR61 27-685); experiment: competition FMAT, labelled hNotch1-Fc on CHO-hDLL4 cells
T5 construct: full length human DLL4 overexpressed on CHO cells (FMAT, FACS) or HEK293 cells (reporter assay)

[12] = biological target: T5, human DLL4 expressed on cells …; experiment: cell-based or functional assay
[13] = biological target: T3, recombinant human VEGF165; experiment: ProteOn off-rate assay, periplasmic extract on coated hVEGF165
Experimental: One additional variant is constructed in which the potential oxidation site at position M30 (CDR1 region, see FIG. 38 indicated as bold italic residue) is removed by introduction of a M30I mutation. […] Off-rates are calculated and compared to the off-rates of the parental VEGFBII5B05.

T2 sequence (Q9JI71 27-686): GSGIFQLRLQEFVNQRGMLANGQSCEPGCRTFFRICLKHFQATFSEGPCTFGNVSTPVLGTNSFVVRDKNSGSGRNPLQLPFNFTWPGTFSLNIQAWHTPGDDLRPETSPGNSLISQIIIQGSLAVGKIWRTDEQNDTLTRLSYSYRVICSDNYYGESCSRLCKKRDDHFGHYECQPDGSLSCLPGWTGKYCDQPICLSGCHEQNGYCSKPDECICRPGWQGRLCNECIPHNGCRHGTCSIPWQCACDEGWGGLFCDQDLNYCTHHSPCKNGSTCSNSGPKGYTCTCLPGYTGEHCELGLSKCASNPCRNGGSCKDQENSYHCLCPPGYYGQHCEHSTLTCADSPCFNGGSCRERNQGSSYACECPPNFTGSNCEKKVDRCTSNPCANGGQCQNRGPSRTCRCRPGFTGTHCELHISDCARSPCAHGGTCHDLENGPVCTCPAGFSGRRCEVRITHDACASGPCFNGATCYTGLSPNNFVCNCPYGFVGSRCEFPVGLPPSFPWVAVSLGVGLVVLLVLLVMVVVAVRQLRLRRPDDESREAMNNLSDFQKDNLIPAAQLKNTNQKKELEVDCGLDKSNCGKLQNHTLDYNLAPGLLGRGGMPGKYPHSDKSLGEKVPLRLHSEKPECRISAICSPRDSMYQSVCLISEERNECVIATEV
VEGF (used to stimulate HUVEC cells), sequence (P15692 other isoform, or with tags, fused parts or gaps limits assumed): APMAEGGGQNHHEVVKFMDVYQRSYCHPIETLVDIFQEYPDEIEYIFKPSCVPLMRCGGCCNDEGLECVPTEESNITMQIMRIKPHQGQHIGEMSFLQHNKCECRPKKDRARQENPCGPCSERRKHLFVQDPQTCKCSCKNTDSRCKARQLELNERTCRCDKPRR
T3 sequence (P15692 other isoform, or with tags, fused parts or gaps): as the sequence (P15692 other isoform, or with tags, fused parts or gaps limits assumed) above

| % inh [1] | IC50 [1] | % inh [2] | IC50 [2] | % inh [3] | IC50 [3] | % inh [4] | IC50 [4] | IC50, DLL4 mediated reporter assay, +HSA [5] | % inh [6] | IC50 [6] | % inh [7] | IC50 [7] | % inh [8] | IC50 [8] | % inhibition, VEGF HUVEC proliferation assay, -HSA [9] | IC50, VEGF HUVEC proliferation assay, -HSA [9] | Binder | also measured |
| --- | --- | --- | --- | --- | --- | --- | --- | --- | --- | --- | --- | --- | --- | --- | --- | --- | --- | --- |
| 100% | 10 nM | 100% | 11.2 nM | 100% | 0.015 nM | 96% | 0.04 nM | 134 nM | 100% | 12.2 nM | 100% | 9.5 nM | 100% | 0.016 nM | 109% | 0.49 nM | VEGFDLLBII015 (bispecific antibody, PEGylated at the Cys at position 15 of the 35 Gly-Ser linker, VEGFBII23B04 - 35GS(Cys15) - VEGFBII5B05 - 35GS - DLLBII129B05) EVQLVESGGGLVQTGDSLRLSCEVSGRTFSSYSMGWFRQAQGKEREFVVAISKGGYKYDSVSLEGRFTISKDNAKNTVYLQINSLKPEDTAVYYCASSRAYGSSRLRLADTYEYWGQGTQVTVSSGGGGSGGGGSGGGGCGGGGSGGGGSGGGGSGGGGSEVQLVESGGGLVQPGGSLRLSCVASGIRFMSMAWYRQAPGKHRELVARISSGGTTAYVDSVKGRFTISRDNSKNTVYLQMNSLKAEDTAVYYCNTFSSRPNPWGAGTQVTVSSGGGGSGGGGSGGGGSGGGGSGGGGSGGGGSGGGGSEVQLVESGGGLVQAGGSLRLSCAASGRTFSSYAMAWYRQAPGKEREYVAAIRWSGGTAYYADSVQGRFTISRDNAKNTVYLQMNSLKPEDTAVYYCANRAPDTRLAPYEYDHWGQGTQVTVSS |  |
|  |  |  |  |  |  |  |  |  |  |  |  |  |  |  |  |  | DLLBII017 (VHH, not shown: small tags and cut ends) VHH: EVQLVESGGGLVQPGGSLRLSCAASGRTFSSYAMAWYRQAPGKEREYVAAIRWSGGTAYYADSVQGRFTISRDNAKNTVYLQMNSLRPEDTAVYYCANRAPDTRLAPYEYDHWGQGTLVTVSS | Kd [10]: 0.2 nM; koff [10]: 8e-05 s⁻¹; kon [10]: 370000 M⁻¹ s⁻¹; IC50 [11]: 12.1 nM; IC50, DLL4-mediated reporter assay (hDLL4) [12]: 126 nM |
|  |  |  |  |  |  |  |  |  |  |  |  |  |  |  |  |  | VEGFBII119G11 (VHH, Humanization variant of VEGFBII5B05; tested as periplasmic extract) VHH: EVQLVESGGGLVQPGGSLRLSCAASGIRFMSMAWYRQAPGKQRELVARISSGGTTAYADSVKGRFTISRDNSKNTVYLQMNSLRAEDTAVYYCNTFSSRPNPWGQGTLVTVSS | binding level (RU) [13]: 234 RU; koff [13]: 0.0775 s⁻¹ |
|  |  |  |  |  |  |  |  |  |  |  |  |  |  |  |  |  | VEGFBII120E10 (VHH, M30I variant of VEGFBII5B05; tested as periplasmic extract) VHH: EVQLVESGGGLVQPGGSLRLSCVASGIRFISMAWYRQAPGKHRELVARISSGGTTAYVDSVKGRFTISRDNSKNTVYLQMNSLKAEDTAVYYCNTFSSRPNPWGAGTQVTVSS | binding level (RU) [13]: 257 RU; koff [13]: 0.0468 s⁻¹ |
| 100% | 12.4 nM | 100% | 23.8 nM | 100% | 0.17 nM | 62% | 0.24 nM | 98.5 nM | 100% | 19.3 nM | 100% | 12.2 nM | 100% | 0.18 nM | 92% | 0.73 nM | VEGFDLLBII013 (bispecific antibody, PEGylated at the Cys at position 15 of the 35 Gly-Ser linker, VEGFBII23B04 - 35GS(Cys15) - DLLBII129B05) EVQLVESGGGLVQTGDSLRLSCEVSGRTFSSYSMGWFRQAQGKEREFVVAISKGGYKYDSVSLEGRFTISKDNAKNTVYLQINSLKPEDTAVYYCASSRAYGSSRLRLADTYEYWGQGTQVTVSSGGGGSGGGGSGGGGCGGGGSGGGGSGGGGSGGGGSEVQLVESGGGLVQAGGSLRLSCAASGRTFSSYAMAWYRQAPGKEREYVAAIRWSGGTAYYADSVQGRFTISRDNAKNTVYLQMNSLKPEDTAVYYCANRAPDTRLAPYEYDHWGQGTQVTVSS |  |
| 100% | 12.3 nM | 100% | 15.4 nM | 100% | 0.024 nM | 94% | 0.08 nM | 122 nM | 100% | 15.4 nM | 100% | 9.9 nM | 100% | 0.026 nM | 98% | 0.49 nM | VEGFDLLBII014 (bispecific antibody, PEGylated at the Cys at position 15 of the 35 Gly-Ser linker, VEGFBII23B04 - 9GS - VEGFBII5B05 - 35GS(Cys15) - DLLBII129B05) EVQLVESGGGLVQTGDSLRLSCEVSGRTFSSYSMGWFRQAQGKEREFVVAISKGGYKYDSVSLEGRFTISKDNAKNTVYLQINSLKPEDTAVYYCASSRAYGSSRLRLADTYEYWGQGTQVTVSSGGGGSGGGSEVQLVESGGGLVQPGGSLRLSCVASGIRFMSMAWYRQAPGKHRELVARISSGGTTAYVDSVKGRFTISRDNSKNTVYLQMNSLKAEDTAVYYCNTFSSRPNPWGAGTQVTVSSGGGGSGGGGSGGGGCGGGGSGGGGSGGGGSGGGGSEVQLVESGGGLVQAGGSLRLSCAASGRTFSSYAMAWYRQAPGKEREYVAAIRWSGGTAYYADSVQGRFTISRDNAKNTVYLQMNSLKPEDTAVYYCANRAPDTRLAPYEYDHWGQGTQVTVSS |  |
| 100% | 41.5 nM | 100% | 103 nM | 100% | 0.22 nM | 60% | 0.27 nM | 582 nM | 100% | 95.3 nM | 100% | 44.9 nM | 100% | 0.19 nM |  |  | VEGFDLLBII012 (bispecific antibody, PEGylated at the Cys at position 15 of the 35 Gly-Ser linker, VEGFBII23B04 - 35GS(Cys15) - DLLBII136C07) EVQLVESGGGLVQTGDSLRLSCEVSGRTFSSYSMGWFRQAQGKEREFVVAISKGGYKYDSVSLEGRFTISKDNAKNTVYLQINSLKPEDTAVYYCASSRAYGSSRLRLADTYEYWGQGTQVTVSSGGGGSGGGGSGGGGCGGGGSGGGGSGGGGSGGGGSEVQLVESGGGLVQPGGSLRLSCAASGFTFGSYDMSWVRRSPGKGPEWVSSINSGGGSTYYADYVKGRFTISRDNAKNTLYLQMNSLKPEDTAVYYCAADRYIWARQGEYWGAYEYDYWGQGTQVTVSS |  |

— US20140120095A1 (Boehringer Ingelheim, published 2014)
